From patent US20250340631A1 (HARBOUR BIOMED SHANGHAI, published 2025)

T1: human CLDN2 (human, UniProt P57739 1-230)
T1 construct: whole, on cells; also called hCLDN2
T1 sequence (looked up): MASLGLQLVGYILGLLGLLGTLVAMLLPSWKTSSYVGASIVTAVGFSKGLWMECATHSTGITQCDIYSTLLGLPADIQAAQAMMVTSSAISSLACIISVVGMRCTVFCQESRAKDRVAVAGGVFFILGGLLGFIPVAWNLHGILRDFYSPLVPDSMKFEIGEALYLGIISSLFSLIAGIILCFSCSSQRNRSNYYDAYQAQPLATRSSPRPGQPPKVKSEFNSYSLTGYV

T2: human CLDN3 (human, UniProt O15551 1-220)
T2 construct: whole, on cells; also called hCLDN3
T2 sequence (looked up): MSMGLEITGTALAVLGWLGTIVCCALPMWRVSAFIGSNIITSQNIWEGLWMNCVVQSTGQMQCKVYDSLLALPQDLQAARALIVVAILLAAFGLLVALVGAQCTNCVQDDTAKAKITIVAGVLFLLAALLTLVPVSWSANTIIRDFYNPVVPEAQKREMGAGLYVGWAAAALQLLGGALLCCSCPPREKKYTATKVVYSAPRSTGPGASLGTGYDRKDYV

T3: human CLDN4 (human, UniProt O14493 1-209)
T3 construct: whole, on cells; also called hCLDN4
T3 sequence (looked up): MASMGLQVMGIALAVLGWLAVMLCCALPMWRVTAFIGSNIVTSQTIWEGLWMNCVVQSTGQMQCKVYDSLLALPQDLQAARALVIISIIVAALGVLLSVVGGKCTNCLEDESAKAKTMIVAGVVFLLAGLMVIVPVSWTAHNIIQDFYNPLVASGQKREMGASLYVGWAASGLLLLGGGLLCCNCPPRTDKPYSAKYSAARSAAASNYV

T4: Human CD32b (human, UniProt P31994 46-217, limits assumed)
T4 sequence (looked up): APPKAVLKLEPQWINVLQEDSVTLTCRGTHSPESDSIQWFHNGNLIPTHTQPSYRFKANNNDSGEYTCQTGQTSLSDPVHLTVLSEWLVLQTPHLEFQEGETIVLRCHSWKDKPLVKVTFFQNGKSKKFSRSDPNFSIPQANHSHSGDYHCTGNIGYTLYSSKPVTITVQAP

T5: Human CD32a(H) (human, UniProt P12318 36-218, limits assumed)
T5 sequence (looked up): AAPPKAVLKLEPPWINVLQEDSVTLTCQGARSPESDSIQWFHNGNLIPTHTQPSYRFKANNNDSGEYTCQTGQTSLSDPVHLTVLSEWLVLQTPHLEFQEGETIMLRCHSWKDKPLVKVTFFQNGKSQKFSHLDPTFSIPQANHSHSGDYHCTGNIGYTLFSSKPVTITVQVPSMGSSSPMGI

T6: human CLDN6 (human, UniProt P56747 1-220)
T6 construct: whole, on cells; also called hCLDN6
T6 sequence (looked up): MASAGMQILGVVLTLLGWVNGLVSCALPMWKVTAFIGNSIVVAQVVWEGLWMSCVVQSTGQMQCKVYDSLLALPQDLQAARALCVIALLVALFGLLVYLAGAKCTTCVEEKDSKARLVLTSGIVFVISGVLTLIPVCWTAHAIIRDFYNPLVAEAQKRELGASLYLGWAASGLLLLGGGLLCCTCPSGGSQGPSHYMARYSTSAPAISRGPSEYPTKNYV

T7: human CLDN9 (human, UniProt O95484 1-217)
T7 construct: whole, on cells; also called hCLDN9
T7 sequence (looked up): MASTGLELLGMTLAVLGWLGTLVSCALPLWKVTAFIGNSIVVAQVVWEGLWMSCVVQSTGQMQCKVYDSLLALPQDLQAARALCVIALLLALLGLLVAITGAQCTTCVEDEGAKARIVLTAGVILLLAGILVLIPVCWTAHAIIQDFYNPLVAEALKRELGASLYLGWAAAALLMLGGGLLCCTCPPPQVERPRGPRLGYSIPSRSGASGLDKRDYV


Assays:
human CLDN18.2 [1] = target: T8, human CLDN18.2 (human); assay: FACS on HEK293/hCLDN18.2 cells
T8 construct: the HEK293 line was made with a GenScript plasmid; also called hCLDN18.2

[2] = target: T9, Biotinylated murine CD3E&D (murine, UniProt P22646 22-108; P04235 22-105, biotin label); assay: BLI (Octet), biotinylated CD3 on SA sensor
T9 construct: also called CDD-M82W5
Protocol: The binding kinetics between proteins and antibodies was analyzed by the Biolayer Interferometry (BLI) technique using an Octet Red 96e (Fortebio) system. Human CD3E (Acro, CDE-H5223), cynomolgus CD3E (Acro, CDE-C5226) and murine CD3E (Acro, CDE-M5256) were mixed with biotin (Thermo Scientific, A39257) in a molar ratio of 1:3. The mixture was incubated at 4° C. overnight, and then excess biotin was removed to obtain biotinylated CD3E. The rotation speed was set at 1000 rpm for the system. […] After being equilibrated in the buffer for 120 s, the SA sensor with captured CD3 was allowed to bind to 2-fold serially diluted antibodies. […] Finally, the SA sensor was immersed in a 10 mM glycine-hydrochloric acid solution at pH 1.5 for regeneration to elute the antibodies bound to the sensor. […] For the interactions of fast binding and fast dissociation, the “steady state” method was selected to fit the data to obtain KD(M) values.

human CLDN18.2 [3] = target: T8, human CLDN18.2; assay: FACS on NUGC4_D8 cells
human CLDN2 = target: T1, human CLDN2; assay: FACS on HEK293 cells transiently expressing human CLDN2
Protocol: (§1) Antibodies were assayed for binding affinity to human CLDN18.2 paralogous proteins by FACS (ACEA NovoCyte). CLDN1, CLDN2, CLDN3, CLDN4, CLDN6 and CLDN9 genes of the human CLDN18.2 paralogous family were transiently transfected into HEK293 cells. […] The cell density was adjusted to 10⁶ cells/mL, and 50 μL of the cell suspension was added to each well of a 96-well plate. An antibody was diluted to 60 nM with FACS buffer, and 50 μL of the antibody dilution was added to each well of the 96-well plate. After 2 h of incubation at 4° C., the plate was washed twice with FACS buffer. Then, an FACS buffer containing a secondary antibody was added. After 1 h of incubation at 4° C., the plate was washed twice with FACS buffer. The cells were resuspended in fixative solution, and run FACS.

human CLDN18.2 [4] = target: T8, human CLDN18.2; assay: competition FACS on HEK293/hCLDN18.2 cells; competitor 200 nM biotinylated PR004549
Protocol: This example is to study the binding of anti-human CLDN18.2 bispecific antibodies to the epitope region of a human CLDN18.2 antigen. Competitive binding experiments were performed at the cellular level using human CLDN18.2-overexpressing HEK293/hCLDN18.2 cells. […] The mixture was well mixed and incubated at 4° C. for 30 min. 25 μL of the corresponding serially diluted non-biotinylated anti-human CLDN18.2 antibody was added. The mixture was well mixed and incubated at 4° C. for 1 h. The cells in each well were washed twice with 200 μL of pre-cooled FACS buffer (2% BSA in DPBS) and centrifuged at 500 g at 4° C. for 5 min, and then the supernatant was discarded. A fluorescent secondary antibody (Jackson ImmunoResearch, 016-540-084, 1:500) was added. The mixture was incubated at 4° C. in the absence of light for 1 h. The cells in each well were washed twice with 200 μL of pre-cooled FACS buffer (2% BSA in DPBS) and centrifuged at 500 g at 4° C. for 5 min, and then the supernatant was discarded. Finally, the cells in each well were resuspended in 200 μL of pre-cooled FACS buffer, and the fluorescence signal values were read using a ACEA_NovoCyte.

human CLDN3 = target: T2, human CLDN3; assay: FACS on HEK293 cells transiently expressing human CLDN3
Protocol: as §1

human CLDN4 = target: T3, human CLDN4; assay: FACS on HEK293 cells transiently expressing human CLDN4
Protocol: as §1

Human CD16a(F) = Human CD16a(F) (human, UniProt P08637 17-208); assay: BLI (Octet), antibody on FAB2G sensor
Protocol: (§2) The binding kinetics between proteins and antibodies was analyzed by the Biolayer Interferometry (BLI) technique using an Octet Red 96e (Fortebio) system. The rotation speed was set at 1000 rpm for the system. […] After equilibrated in the buffer for 120 s, the FAB2G sensor was allowed to bind to 2-fold serially diluted human Fc receptor protein. Finally, the FAB2G sensor was immersed in a 10 mM glycine-hydrochloric acid solution at pH 1.5 for regeneration to elute the proteins bound to the sensor. The affinity assays of antibodies for FcRn were performed under the conditions of both pH 6.0 buffer and pH 7.4 buffer. […] For the interactions of fast binding and fast dissociation, the “steady state” method was selected to fit the data to obtain KD(M) values.

Human CD64 = target: T10, Human CD64 (human, UniProt P12314 16-288, limits assumed); assay: BLI (Octet), antibody on FAB2G sensor
T10 construct: bought recombinant protein
Protocol: as §2

Human CD32b = target: T4, Human CD32b; assay: BLI (Octet), antibody on FAB2G sensor
Protocol: as §2

Human CD32a(H) = target: T5, Human CD32a(H); assay: BLI (Octet), antibody on FAB2G sensor
Protocol: as §2

Human CD16a(V) = Human CD16a(V) (human, UniProt P08637 17-208); assay: BLI (Octet), antibody on FAB2G sensor
Protocol: as §2

human CLDN6 = target: T6, human CLDN6; assay: FACS on HEK293 cells transiently expressing human CLDN6
Protocol: as §1

Human FcRn = Human FcRn (human, UniProt P55899 24-297; P61769 21-119); assay: BLI (Octet), antibody on FAB2G sensor, pH 6.0, 1:1 global fit; pH 6.0; 400-25 nM
Protocol: as §2

[5] = target: T11, Human CD3E (Acro, CDE-H5223) (human, UniProt P07766 23-126, biotinylated (mixed with biotin 1:3)); assay: BLI (Octet), biotinylated CD3 on SA sensor, 1:1 global fit;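 also: antibodies applied as analyte in 2-fold serial dilutions, with a 180 s association phase followed by a 300 s dissociation phase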
T11 construct: also called Human CD3Ec

human CLDN9 = target: T7, human CLDN9; assay: FACS on HEK293 cells transiently expressing human CLDN9
Protocol: as §1

T11 sequence (P07766 23-126 limits assumed): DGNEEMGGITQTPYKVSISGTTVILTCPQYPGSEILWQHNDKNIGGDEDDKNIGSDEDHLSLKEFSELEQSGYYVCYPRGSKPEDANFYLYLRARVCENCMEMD
Human CD16a(V), sequence (P08637 17-208 F176V limits assumed): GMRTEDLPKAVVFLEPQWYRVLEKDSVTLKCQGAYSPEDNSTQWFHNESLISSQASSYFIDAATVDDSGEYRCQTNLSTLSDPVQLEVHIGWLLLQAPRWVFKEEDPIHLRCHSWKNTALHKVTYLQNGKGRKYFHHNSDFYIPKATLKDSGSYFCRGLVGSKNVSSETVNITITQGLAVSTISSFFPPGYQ
Human CD16a(F), sequence (P08637 17-208 limits assumed): as the sequence (P08637 17-208 F176V limits assumed) above, with V160F counted along it
T9 sequence (P22646 22-108, chain 1 of 2): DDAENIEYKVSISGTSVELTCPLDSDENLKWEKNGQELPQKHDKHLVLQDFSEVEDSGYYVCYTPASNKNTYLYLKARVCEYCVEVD
T9 sequence (P04235 22-105, chain 2 of 2): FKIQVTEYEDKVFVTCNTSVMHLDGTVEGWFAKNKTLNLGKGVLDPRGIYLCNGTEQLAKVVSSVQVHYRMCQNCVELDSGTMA
T10 sequence (P12314 16-288 limits assumed): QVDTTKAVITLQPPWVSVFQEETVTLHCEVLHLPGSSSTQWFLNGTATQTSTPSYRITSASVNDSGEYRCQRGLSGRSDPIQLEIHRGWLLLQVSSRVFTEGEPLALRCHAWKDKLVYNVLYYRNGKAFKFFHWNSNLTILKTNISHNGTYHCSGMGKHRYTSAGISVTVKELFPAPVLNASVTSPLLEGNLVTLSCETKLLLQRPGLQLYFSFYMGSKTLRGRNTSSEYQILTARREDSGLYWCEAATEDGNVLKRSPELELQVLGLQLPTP

Row | EC50 (human CLDN18.2 [1]) [nM] | binding result [2] | EC50 (human CLDN18.2 [3]) [nM] | binding result (human CLDN2) | IC50 (human CLDN18.2 [4]) [nM] | Maximum inhibition rate (%) (human CLDN18.2 [4]) | binding result (human CLDN3) | binding result (human CLDN4) | binding result (Human CD16a(F)) | binding result (Human CD64) | binding result (Human CD32b) | binding result (Human CD32a(H)) | binding result (Human CD16a(V)) | binding result (human CLDN6) | Kd (Human FcRn) [nM] | koff (Human FcRn) [s⁻¹] | kon (Human FcRn) [M⁻¹ s⁻¹] | Kd [5] [nM] | koff [5] [s⁻¹] | kon [5] [M⁻¹ s⁻¹] | Binder | also measured
1 | 11.5 | no binding (tested: 120-7.5 nM) | 70.1 | no binding | 70.8 | 48.1 | no binding | no binding | no binding (tested: 10000-625 nM) | no binding (tested: 800-50 nM) | no binding (tested: 10000-625 nM) | no binding (tested: 10000-625 nM) | no binding (tested: 6000-375 nM) | no binding | 200 | 0.0609 | 305000 | 99 | 0.00978 | 98900 | PR006292 (bispecific antibody, human IgG1, lambda, structure 1; CD3 Fab from PR003886, CLDN18.2 VH from PR007245; IgG1 knob/hole, AAA (L234A, L235A, G237A)) EVQLVESGGGLVQPGGSLRLSCAASGFTFSSYWMHWVRQVPGKGLVWVSRISSDASRTIYADSVKGRFTISRDNAKNTLYLQMNSLRAEDTAVYYCARGEDHDILTGYPIRGQGTTVTVSSGGGGSGGGGSGGGGSEVQLVESGGGLVQPGGSLRLSCAASGFTFSSYWMHWVRQVPGKGLVWVSRISSDASRTIYADSVKGRFTISRDNAKNTLYLQMNSLRAEDTAVYYCARGEDHDILTGYPIRGQGTTVTVSSASEPKSSDKTHTCPPCPAPEAAGAPSVFLFPPKPKDTLMISRTPEVTCVVVDVSHEDPEVKFNWYVDGVEVHNAKTKPREEQYNSTYRVVSVLTVLHQDWLNGKEYKCKVSNKALPAPIEKTISKAKGQPREPQVCTLPPSREEMTKNQVSLSCAVKGFYPSDIAVEWESNGQPENNYKTTPPVLDSDGSFFLVSKLTVDKSRWQQGNVFSCSVMHEALHNHYTQKSLSLSPGK heavy: EVQLVESGGGLVQPGGSLKLSCAASGFTFSTYAMNWVRQASGKGLEWVGRIRSKYNNYATYYADSVKDRFTISRDDSKNTAYLQMNSLKTEDTAVYYCTRHGNFGNSYVSWFAYWGQGTLVTVSSASTKGPSVFPLAPSSKSTSGGTAALGCLVKDYFPEPVTVSWNSGALTSGVHTFPAVLQSSGLYSLSSVVTVPSSSLGTQTYICNVNHKPSNTKVDKKVEPKSCDKTHTCPPCPAPEAAGAPSVFLFPPKPKDTLMISRTPEVTCVVVDVSHEDPEVKFNWYVDGVEVHNAKTKPREEQYNSTYRVVSVLTVLHQDWLNGKEYKCKVSNKALPAPIEKTISKAKGQPREPQVYTLPPCREEMTKNQVSLWCLVKGFYPSDIAVEWESNGQPENNYKTTPPVLDSDGSFFLYSKLTVDKSRWQQGNVFSCSVMHEALHNHYTQKSLSLSPGK light: QAVVTQEPSLTVSPGGTVTLTCRSSTGAVTTSNYANWVQQKPGQAPRGLIGGTNKRAPWTPARFSGSLLGDKAALTLLGAQPEDEAEYFCALWYSNLWVFGGGTKLTVLGQPKAAPSVTLFPPSSEELQANKATLVCLISDFYPGAVTVAWKADSSPVKAGVETTTPSKQSNNKYAASSYLSLTPEQWKSHRSYSCQVTHEGSTVEKTVAPTECS | binding result (human CLDN9): no binding
2 | 14.4 | no binding (tested: 120-7.5 nM) | 51.4 | no binding | 56.7 | 48.5 | no binding | no binding | no binding (tested: 10000-625 nM) | no binding (tested: 800-50 nM) | no binding (tested: 10000-625 nM) | no binding (tested: 10000-625 nM) | no binding (tested: 6000-375 nM) | no binding | 210 | 0.0608 | 289000 | 151 | 0.0129 | 85400 | PR006384 (bispecific antibody, human IgG1, lambda, structure 1; CD3 Fab from PR003886, CLDN18.2 VH from PR007246; AAA) EVQLVESGGGLVQPGGSLRLSCAASGFTFSSYWMHWVRQVPGKGLVWVSRISSTGSRTIYADSVKGRFTISRDNAKNTLYLQMNSLRAEDTAVYYCARGEDHDILTGYPIRGQGTTVTVSSGGGGSGGGGSGGGGSEVQLVESGGGLVQPGGSLRLSCAASGFTFSSYWMHWVRQVPGKGLVWVSRISSTGSRTIYADSVKGRFTISRDNAKNTLYLQMNSLRAEDTAVYYCARGEDHDILTGYPIRGQGTTVTVSSASEPKSSDKTHTCPPCPAPEAAGAPSVFLFPPKPKDTLMISRTPEVTCVVVDVSHEDPEVKFNWYVDGVEVHNAKTKPREEQYNSTYRVVSVLTVLHQDWLNGKEYKCKVSNKALPAPIEKTISKAKGQPREPQVCTLPPSREEMTKNQVSLSCAVKGFYPSDIAVEWESNGQPENNYKTTPPVLDSDGSFFLVSKLTVDKSRWQQGNVFSCSVMHEALHNHYTQKSLSLSPGK heavy: EVQLVESGGGLVQPGGSLKLSCAASGFTFSTYAMNWVRQASGKGLEWVGRIRSKYNNYATYYADSVKDRFTISRDDSKNTAYLQMNSLKTEDTAVYYCTRHGNFGNSYVSWFAYWGQGTLVTVSSASTKGPSVFPLAPSSKSTSGGTAALGCLVKDYFPEPVTVSWNSGALTSGVHTFPAVLQSSGLYSLSSVVTVPSSSLGTQTYICNVNHKPSNTKVDKKVEPKSCDKTHTCPPCPAPEAAGAPSVFLFPPKPKDTLMISRTPEVTCVVVDVSHEDPEVKFNWYVDGVEVHNAKTKPREEQYNSTYRVVSVLTVLHQDWLNGKEYKCKVSNKALPAPIEKTISKAKGQPREPQVYTLPPCREEMTKNQVSLWCLVKGFYPSDIAVEWESNGQPENNYKTTPPVLDSDGSFFLYSKLTVDKSRWQQGNVFSCSVMHEALHNHYTQKSLSLSPGK light: QAVVTQEPSLTVSPGGTVTLTCRSSTGAVTTSNYANWVQQKPGQAPRGLIGGTNKRAPWTPARFSGSLLGDKAALTLLGAQPEDEAEYFCALWYSNLWVFGGGTKLTVLGQPKAAPSVTLFPPSSEELQANKATLVCLISDFYPGAVTVAWKADSSPVKAGVETTTPSKQSNNKYAASSYLSLTPEQWKSHRSYSCQVTHEGSTVEKTVAPTECS | binding result (human CLDN9): no binding
